The record followed here is patent US20220324964A1 (GENERAL HOSPITAL, published 2022).

The target in experiment [1] is T1, his-tagged recombinant TACI (UniProt O14836 1-165, limits assumed).
T1 construct: Analyte in the SPR assay; also called TNFRSF13B; not shown: his tag
T1 sequence (looked up): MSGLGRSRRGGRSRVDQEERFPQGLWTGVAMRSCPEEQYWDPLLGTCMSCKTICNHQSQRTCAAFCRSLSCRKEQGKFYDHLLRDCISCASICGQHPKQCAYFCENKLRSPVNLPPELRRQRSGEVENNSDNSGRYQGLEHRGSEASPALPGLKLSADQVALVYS
Description: SPR; antibody captured on anti-mouse IgG chip, his-tagged recombinant TACI as analyte. On the procedure: The antibodies were analyzed by surface plasmon resonance according to the following procedure (FIG. 2). The binding of his-tagged recombinant TACI to anti-TACI antibody was captured to 120 RU (for TACI) on anti-mouse IgG.

The target of experiment [2] is T2, soluble TACI protein, fluorescently labeled (UniProt O14836 1-165, limits assumed, fluorescent label (not specified)).
T2 construct: Labeled soluble protein used to stain CAR T cells in flow cytometry; also called sTACI; fluorescent TACI
T2 sequence (looked up): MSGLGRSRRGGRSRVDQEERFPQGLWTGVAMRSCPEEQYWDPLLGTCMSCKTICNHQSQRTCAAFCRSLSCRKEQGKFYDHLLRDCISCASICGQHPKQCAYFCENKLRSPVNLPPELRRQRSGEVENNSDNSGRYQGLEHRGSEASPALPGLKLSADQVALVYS
Description: flow cytometry, fluorescent soluble TACI titrated 0.01 to 1000 nM on CAR T cells, MFI relative to untransduced cells (panel Amount of soluble TACI binding), N=3. From the text: (§1) The top two plots show binding of fluorescent BCMA and the bottom two plots show binding of fluorescent TACI to anti-TACI H-L CAR, anti-TACI L-H CAR, anti-BCMA, anti-TACI/anti-BCMA bispecific CAR, anti-BCMA/anti-TACI bispecific CAR, or untransduced T cells. The two left plots show the percentage of cells positive for BCMA or TACI. The two right plots show median fluorescence intensity for each cell population relative to untransduced cells.
(§2) To test the efficacy of bispecific CAR T cells to bind their respective antigens, T cells were either left untransduced, or transduced with anti-TACI H-L CAR, anti-TACI L-H CAR, anti-BCMA CAR, anti-TACI/anti-BCMA bispecific CAR, or anti-BCMA/anti-TACI bispecific CAR, and were tested for their binding of soluble antigens.

Experiment [3] has as its target T2, soluble TACI protein, fluorescently …. Description: flow cytometry, fluorescent soluble TACI titrated 0.01 to 1000 nM on CAR T cells, percentage TACI+, N=3. On the procedure: (§3) FIGS. 25A-25B show measurements of binding of soluble TACI protein to untransduced T cells, and to T cells expressing anti-TACI H-L, anti-TACI L-H, or anti-BCMA. Cells were incubated with fluorescent soluble TACI protein at various concentrations, after which fluorescence of the cells was measured using flow cytometry, represented as percentage of cells positive for TACI (FIG. 25A) or as median fluorescence intensity (MFI) relative to signal measured in untransduced cells (FIG. 25B).
(§4) To evaluate the expression, binding efficacy, and binding specificity of anti-TACI CARs, normal donor T cells were transduced with anti-TACI H-L, anti-TACI L-H, or anti-BCMA and transduction efficiency was evaluated by measuring the percentage of each T cell population positive for mCherry expression by flow cytometry. […] To compare binding efficiency and specificity of different CARs, T cells expressing each CAR construct were incubated with fluorescently-labeled soluble TACI and analyzed by flow cytometry.
For orientation: Flow cytometry measures light scatter and fluorescence of single cells or particles in a stream.

Experiment [4] shares this target. The experiment can be described thus: flow cytometry, fluorescent soluble TACI titrated 0.01 to 1000 nM on CAR T cells, percentage TACI+ (panel Soluble binding of TACI), N=3.
Description: as §1, §2

Experiment [5] concerns the target T3, soluble BCMA, labeled (UniProt Q02223 1-54, fluorescent label (not specified)).
T3 construct: Labeled soluble protein used to stain CAR T cells in flow cytometry; also called sBCMA; fluorescent BCMA
T3 sequence (looked up): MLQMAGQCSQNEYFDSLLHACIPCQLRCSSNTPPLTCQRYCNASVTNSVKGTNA
Description: flow cytometry, labeled soluble BCMA (8 to 1000 ng) on CAR T cells, gated on live CAR T cells. On the procedure: The anti-BCMA, anti-TACI (H/L), and anti-TACI (L/H) CAR T cells were evaluated for their capabilities to bind to soluble TACI (sTACI), soluble BCMA (sBCMA), and soluble APRIL (sAPRIL) was determined. T cells were washed 4 times in PBS 4% BSA, and incubated with labeled protein on ice at 4° C. for 40 min. After incubation, cells were washed twice with FACS buffer and flow cytometry was performed gating on live, CAR T cells to calculate protein binding. As evident in FIG. 12A, anti-TACI (L/H) CAR T cells have higher binding efficiency to soluble TACI than anti-TACI (H/L) CAR T cells.

Experiment [6] has as its target T2, soluble TACI protein, fluorescently …. Description: flow cytometry, fluorescent soluble TACI titrated 0.01 to 1000 nM on CAR T cells, MFI relative to untransduced cells, N=3. On the procedure:
as §3, §4

B1: anti-TACI antibody (monoclonal antibody from hybridoma, Example 1) (antibody, V domains shown)
VH: EVQLQQSGPELVKPGASVKISCKTSGYTFTESTIHWVKQSHGKSLEWIGGISPNNGGSPFNQKFKGKATLTVDKSSSTVYMELRSLSSEDSAVYYCAKWVRGAMDFWGQGTSVTVSS
VL: not shown
notes: also called anti-TACI mAb
In general, Kd refers to the free concentration of one partner at which half of the binding sites on the other are occupied at equilibrium, for simple one-to-one binding. By koff is commonly meant the first-order rate constant of dissociation. As a reminder, the kon is the second-order rate constant of association. B1: in experiment [1], the Kd was 0.861 nM, the koff was determined as 0.00121 s⁻¹ and the association rate constant (kon) came out at 1.41e+06 M⁻¹ s⁻¹.

B2: Anti-TACI (H/L) CAR expressed on T cells (other)
chain: EVQLQQSGPELVKPGASVKISCKTSGYTFTESTIHWVKQSHGKSLEWIGGISPNNGGSPFNQKFKGKATLTVDKSSSTVYMELRSLSSEDSAVYYCAKWVRGAMDFWGQGTSVTVSSGGGGSGGGGSGGGGSGGGGSDIVLTQSPASLAVSLGQRATISCRASESVDYYGMSLMNWFQQKPGQPPKLVIYAASNQGSGVPARFSGSGSGTDFRLNIHPLEEDDTGMYFCQQSKEAPPTFGGGTKLEIKTTTPAPRPPTPAPTIASQPLSLRPEACRPAAGGAVHTRGLDFACDIYIWAPLAGTCGVLLLSLVITLYCKRGRKKLLYIFKQPFMRPVQTTQEEDGCSCRFPEEEEGGCELRVKFSRSADAPAYQQGQNQLYNELNLGRREEYDVLDKRRGRDPEMGGKPRRKNPQEGLYNELQKDKMAEAYSEIGMKGERRRGKGHDGLYQGLSTATKDTYDALHMQALPPR
notes: Chimeric antigen receptor: anti-TACI scFv VH-(G4S)4-VL, CD8 hinge/TM, 4-1BB, CD3zeta; The vector also expresses mCherry; also called Anti-TACI CAR (H-L)
Broadly, the EC50 (read off the curve) is the concentration needed to bring the measured effect to its halfway point. B2: the 50% effective concentration (EC50 (read off the curve)) was around 8 nM in experiment [2], around 2 nM in experiment [3], around 2 nM in experiment [4] and around 8 nM in experiment [6]. Moreover, the binding result in experiment [5] is “no binding (tested: 1000 ng)”.
